This assay addresses Anthrol reductase CbAR from Cercospora sp. JNU001 (Cercospora sp. JNU001). The assay is described as follows: SEC; purified CbAR on gel filtration (Supplementary Fig. 1b, c); the column of the purification was Hiload 16/600 Superdex 200 pg in 25 mM Tris-HCl pH 8.0, 150 mM NaCl. On the technique in general: In gel filtration, larger molecules generally elute earlier.

As usually defined, the stoichiometry N is the number of molecules, sites or subunits per partner or assembly.

With “Anthrol reductase CbAR from Cercospora sp. JNU001 (enzyme)”, the stoichiometry N was 2.

Source of the values: publication PMC9867772.
